Data reported in patent publication US8927007B2, “Formulations for treatment with glucosinolates” (priority 2010, dated 2015).

Tests used:
[1] = Activity of myrosinase immobilized on Concanavalin A-Sepharose gel (sinigrin hydrolysis, absorbance at 227 nm); type: biochemical
Procedure: (§1) Con-A gel (1 ml) was packed in a 3 ml syringe, washed with 5 portions of 5 ml of 10 mM midazole, 1 mD EDTA, 1 mM DTT, 30% glycerol, pH 6.0. Subsequently, 10 ml of purified myrosinase (2.9 units/ml) (from 7 day-old daikon sprouts as described in Shikita et al. Biochem J. (1999) 341:725-732) were applied to the column and the effluent collected and reapplied to the column 3 more times until no activity was detected in the effluent. After washing 5 times with 5 ml of 33 mM potassium phosphate buffer (pH 6.0), 1 mM EDTA, and 0.5 mM ascorbate, the gel was transferred to a 10 ml syringe and mixed with 10 ml of 10 mM sinigrin in 33 mM potassium phosphate buffer. Aliquots (20 μl of the solution was withdrawn from the mixture every 30 sec., diluted with 0.98 ml of the 33 mM phosphate buffer, and the absorbance was measured at 227 nm against the same buffer. After 10 collections (5 min), the gel was washed with 3 portions of 5 ml of 33 mM potassium phosphate buffer, and 3 portions of 5 ml 10 mM midazole, 1 mM EDTA, 1 mD DTT, 30% glycerol, pH 6.0, and stored at 4° C. for the next test.

[2] = Long-term stability of myrosinase on Concanavalin A-Sepharose gels; type: physicochemical
Procedure: as §1, with “After 10 collections (5 min), the gel was washed with 3 portions of 5 ml of 33 mM potassium phosphate buffer, and 3 portions of 5 ml 10 mM midazole, 1 mM EDTA, 1 mD DTT, 30% glycerol, pH 6.0, and stored at 4° C. for the next test.” left out

Substance: myrosinase (β-thioglucoside glucohydrolase) [Immobilized enzyme]
- sinigrin hydrolyzed ([1]; immobilized on Con-A gel, 10 ml of 10 mM sinigrin in 33 mM potassium phosphate buffer, 10 collections (5 min)): more than 25 μmol
- enzymatic activity when immobilized on Con-A gels ([1]; immobilized on Con-A gels): retain its enzymatic activity
- stability without refrigeration ([2]; immobilized on Con-A gels, without refrigeration): stable indefinitely
- changes of activity on storage ([2]; over at least the next 7 days, kept at 4° C. in 20% glycerol): no significant changes of activity
- stability of immobilized enzyme at room temperature ([2]; room temperature, period of several weeks): stable
- elution of the enzyme from the column ([2]; under conditions required for hydrolysis): no significant elution
